Paper PMC7772773

Molecular target: EGFP-RABL2B (UniProt Q9UNT1)
Test: co-immunoprecipitation (IP anti-EGFP, Western blot anti-Myc), IP/input band quantitation
Conditions: lysates from HEK293T cells; Input is 2.5% of lysate used for IP; parent: 100

Chain of EGFP-RABL2B (Q9UNT1 whole entry): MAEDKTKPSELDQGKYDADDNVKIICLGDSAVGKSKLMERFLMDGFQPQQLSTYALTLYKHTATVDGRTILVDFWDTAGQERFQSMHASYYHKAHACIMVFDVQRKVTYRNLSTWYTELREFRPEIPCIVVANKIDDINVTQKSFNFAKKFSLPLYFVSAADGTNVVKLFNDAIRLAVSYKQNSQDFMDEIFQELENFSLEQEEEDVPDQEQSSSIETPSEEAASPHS

CD8α-(HTR6-IC3)-myc R216A; K217A; Q218A
percent of parent: 29%
